From publication PMC4623018, “Studies on the catalytic domains of multiple JmjC oxygenases using peptide substrates” (Epigenetics, 2014)
Ends that are not written are not given here. Me3 = trimethyl on the lysine side-chain amine

Biological target: T1, KDM4A catalytic domain (human, UniProt O75164 1-359)
T1 construct: The limits 1-359 are those of the KDM4A catalytic domain used in the activity assays; also called KDM4A (1–359); 4A(1–359); source: E. coli, purified as previously described
T1 sequence (looked up): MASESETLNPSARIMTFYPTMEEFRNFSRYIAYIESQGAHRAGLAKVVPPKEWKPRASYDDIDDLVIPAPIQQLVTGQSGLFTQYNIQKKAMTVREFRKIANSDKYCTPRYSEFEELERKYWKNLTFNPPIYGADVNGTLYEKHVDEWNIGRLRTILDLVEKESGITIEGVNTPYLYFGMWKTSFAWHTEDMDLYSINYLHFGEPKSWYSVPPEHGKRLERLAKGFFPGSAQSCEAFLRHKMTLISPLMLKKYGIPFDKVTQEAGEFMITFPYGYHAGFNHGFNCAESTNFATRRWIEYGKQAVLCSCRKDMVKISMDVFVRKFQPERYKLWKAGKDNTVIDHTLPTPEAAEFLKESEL
Assay: crystal structure; KDM4A catalytic domain complexed with H3K27me3 peptides (25 residue and 5 residue)
Details: both partners purified

- binding result: binds
B1: 5 residue H3K27me3 peptide (peptide, UniProt P68431 26-30, looked up)
peptide: ARK(Me3)SA
notes: histone H3 fragment, residues 25-29; also called H3(25–29)K27me3
